From FireProtDB (doi:10.1002/prot.20309) come the findings set out here.

Sequences and labels used below:
B1: Beta-lactoglobulin-1A/1C wild type, P04119 (protein)
chain: MRCLLLTLGLALLCGVQAVEVTPIMTELDTQKVAGTWHTVAMAVSDVSLLDAKSSPLKAYVEGLKPTPEGDLEILLQKRENDKCAQEVLLAKKTDIPAVFKINALDENQLFLLDTDYDSHLLLCMENSASPEHSLVCQSLARTLEVDDQIREKFEDALKTLSVPMRILPAQLEEQCRV
B2: Beta-lactoglobulin wild type, P02754 (protein)
chain: MKCLLLALALTCGAQALIVTQTMKGLDIQKVAGTWYSLAMAASDISLLDAQSAPLRVYVEELKPTPEGDLEILLQKWENGECAQKKIIAEKTKIPAVFKIDALNENKVLVLDTDYKKYLLFCMENSAEPEQSLACQCLVRTPEVDDEALEKFDKALKALPMHIRLSFNPTQLEEQCHI

The conditions of the first data set: Sus scrofa; pH 2; 25 °C; GdnHCl; Fluorescence; Phosphate 10 mM; whole UniProt chain shown.
Regarding B1, the denaturant m value was determined as 2.2 kcal/mol/M, the “denaturant midpoint (higher = more stable)” value (“denaturant midpoint” for short) came out at 1 M and the unfolding free energy worked out at 2.1 kcal/mol.

The data set is the same for the next values; noted with them: Sus scrofa; pH 2; 25 °C; GdnHCl; NMR; Phosphate 10 mM; whole UniProt chain shown.
B1: the denaturant m value amounted to 3.5 kcal/mol/M, the “denaturant midpoint” value came to 0.7 M and the unfolding free energy amounted to 2.3 kcal/mol.

Still in this data set, the particulars now being: Sus scrofa; pH 6; 25 °C; GdnHCl; NMR; Phosphate 10 mM; whole UniProt chain shown.
For B1, the denaturant m value is 4.2 kcal/mol/M, the “denaturant midpoint” value is 1.1 M and the unfolding free energy came to 4.6 kcal/mol.

Still in this data set, the particulars now being: Bos taurus; pH 2; 25 °C; GdnHCl; CD; Phosphate 10 mM; transition: 3; whole UniProt chain shown.
For B2, the denaturant m value worked out at 1 kcal/mol/M, the “denaturant midpoint” value was 3.8 M and the unfolding free energy was found to be 12.8 kcal/mol.

Still in this data set, the particulars now being: Bos taurus; pH 6; 25 °C; GdnHCl; CD; Phosphate 10 mM; whole UniProt chain shown.
Consider B2, for which the denaturant m value came out at 4.1 kcal/mol/M, the “denaturant midpoint” value turned out to be 2.8 M and the unfolding free energy was 11.5 kcal/mol.
